Reference: the DeepSol protein solubility set

Assay: soluble on expression in E. coli; label from the status in PepcDB or PDB records

**Q.** For “GMSRGHCILAHGFESGPDALKVTALAEVAERLGWTHERPDFTDLDARRDLGQLGDVRGRLQRLLEIARAATEKGPVVLAGSSLGSYIAAQVSLQVPTRALFLMVPPTKMGPLPALDAAAVPISIVHAWHDELIPAADVIAWAQARSARLLLVDDGHRLGAHVQAASRAFAELLQSL”, which “soluble on expression in E. coli” value is on record?
**A.** soluble

**Q.** With “GMTASTAPQTEPHKTSAPESGPVMLLVATIKGAWFLASDPARRTWELRGPVFLGHTIHHIVQDPREPERMLMAARTGHLGPTVFRSDDGGGNWTEATRPPAFNKAPEGETGRVVDHVFWLTPGHASEPGTWYAGTSPQGLFRSTDHGASWEPVAGFNDHPMRRAWTGGEQDGTPDGPKMHSILVDPRDPKHLYIGMSSGGVFESTDAGTDWKPLNRGCAANFLPDPNVEFGHDPHCVVQHPAAPDILYQQNHCGIYRMDRREGVWKRIGDAMPREVGDIGFPIVVHQRDPRTVWVFPMDGSDVWPRVSPGGKPAVYVTRDAGESWQRQDRGLPTDQAWLTVKRQAMTADAHAPVGVYFGTTGGEIWASADEGEHWQCIASHLPHIYAVQSARPV” as the sequence, how does the “soluble on expression in E. coli” value read?
**A.** soluble

**Q.** Which “soluble on expression in E. coli” value does the source give for “GMTEAFPALVRQDDARYAITVGPDLAVGPPGHAYLFGGASMALALDVAAETVGRPVVQGSLQFVSFTPLGSVLDLTVEVLQSGRTLAQARVAGTVDGRLVFHSGISLGMREGFSARQWALAPPVPQPDNCPPCTTLPAQDDNARYLEGIEVREAGGPEVPSGRTRLWLRRKDGAPLDAASLAMFADFLPIALGRATGCSGGGNSLDNSLRITGAAAPGWCLCDMIIPSSASGFAQGQVTLWDQSGRLLATGAQSLLLKG” here?
**A.** soluble

**Q.** With “GMTNTTYVQEYHAIVEVLSKYNEGGKKADSTIMRPAFSSQATIFGVDVDNKLTGGPIQGLFDVIDNVFHPSPEAKAAIARIDIVGTAASARIDTDDISGFRFTDFFNLLKVEGKWTVVSKIYHTHPSA” as the sequence, how does the “soluble on expression in E. coli” value read?
**A.** soluble

**Q.** Which “soluble on expression in E. coli” value does the source give for “GMTSPVAVIARFMPRPDARSALRALLDAMITPTRAEDGCRSYDLYESADGGELVLFERYRSRIALDEHRGSPHYLNYRAQVGELLTRPVAVTVLAPLDEASA” here?
**A.** soluble

**Q.** Which “soluble on expression in E. coli” value does the source give for “GMVVNESMYQLGSVRSAIRELFEYGKKRAAIVGKENVYDFSIGNPSIPAPQIVNDTIKELVTDYDSVALHGYTSAQGDVETRAAIAEFLNNTHGTHFNADNLYMTMGAAASLSICFRALTSDAYDEFITIAPYFPEYKVFVNAAGARLVEVPADTEHFQIDFDALEERINAHTRGVIINSPNNPSGTVYSEETIKKLSDLLEKKSKEIGRPIFIIADEPYREIVYDGIKVPFVTKYYDNTLVCYSYSKSLSLPGERIGYVLVPDEVYDKAELYAAVCGAGRALGYVCAPSLFQKMIVKCQGATGDINAYKENRDLLYEGLTRIGYHCFKPDGAFYMFVKALEDDSNAFCEKAKEEDVLIVAADGFGCPGWVRISYCVDREMIKHSMPAFEKIYKKYNK” here?
**A.** soluble

**Q.** With “GPGSMAAAEGGQRSDEQVRAAALSWLRMTPVEKRVYEEEAQSWQTRLETLSTAPPSAHDLGEGSSSAAALPDALPSAEQPLPQQQHSSHLVAQRSSPKATAERLPRSKSSFVLFRAHMKGRRKMCMRELCAVWRNMSAEEKAPYDAAAASKRTEQFLSQTPSAPGSQS” as the sequence, how does the “soluble on expression in E. coli” value read?
**A.** soluble

**Q.** Which “soluble on expression in E. coli” value does the source give for “GPGSMALRDIVGKQMLRQTVLQPRLKLPAGRVVSIEEGWRLARLVREGEEHASAVAVEAAEGMVAPSSVVLEDDVSKRILLLRHKKRKEGDTKAAVRYAQRSRAVPVVGKVAPEVRDIALNVLRKNPIGRAELRARHERSKAKRATKGSDSTRAKRAGRL” here?
**A.** not soluble

**Q.** With “GPGSMAPALCFTCMQPSRWTREGLPLILPLFQHLSPLSPFPNPSCNGISMCCTHTHTHTHTHTHTHTHAHTRLHLFQRFCFVNAIDFYELGAKSTRRVHGKVIIAARSRAPAMPPPAAAVSSSPSSSAAPMAVVYVRRDGRTALELRGKEMKLSDMTTFDGSSWYAQGQTAVMVSIHGPTIAKNDEYDTCIVQVRIQHAGVLAPAAGGAEKALYEERKLELLTRTDALALGSLLESTLNAVFLRERFPRCVLVVDVIVVRDDGSLPAVALNAVMSALLDAGLPCRTTMAAVCVAVLTHDGGADSNSGPAPDRHSSVEGSSSAGSVYEYLLDPTSAEESLGVGYAVPASSAAEKAAVTGASSVATSSAAPMSLRGGNAAQQVQGQYRCVSTGVFAFSNPACGGGLLAQLVRSVGSGSAEMCGPGVSVQAYAEMVALAERASAVLFEFFRQCNVAE” as the sequence, how does the “soluble on expression in E. coli” value read?
**A.** not soluble
